The target of experiment [1] is T1, Sm (sphingomyelin).
T1 construct: in an ANA panel of nuclear antigens Sm is usually the Smith ribonucleoprotein antigen; Kept, but see recheck
Nature of the experiment: AtheNA Multi-Lyte ANA, Ab at 12.5 ug/ml.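 Also: monoclonal antibodies screened for binding to a panel of nuclear autoantigens (SSA, SSB, Sm, RNP, Scl-70, Jo-1, dsDNA, CentB, histones), with anti-HIV and anti-RSV antibodies as controls.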

For experiment [2], the target named is systemic lupus erythematosus autoantigen SSA. The experiment can be described thus: AtheNA Multi-Lyte ANA, Ab at 12.5 ug/ml.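 Also: monoclonal antibodies screened for binding to a panel of nuclear autoantigens (SSA, SSB, Sm, RNP, Scl-70, Jo-1, dsDNA, CentB, histones), with anti-HIV and anti-RSV antibodies as controls.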
Experiment [3] concerns the target ribonucleoprotein (RNP). The experiment can be described thus: AtheNA Multi-Lyte ANA, Ab at 12.5 ug/ml.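 Also: monoclonal antibodies screened for binding to a panel of nuclear autoantigens (SSA, SSB, Sm, RNP, Scl-70, Jo-1, dsDNA, CentB, histones), with anti-HIV and anti-RSV antibodies as controls.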
For experiment [4], the target named is T2, 15-mer peptide GPPPPIDNGDITSFP (SEQ ID NO: 114) (human).
T2 construct: Immobilized for SPR; also called parent peptide
T2 peptide: GPPPPIDNGDITSFP
The experiment can be described thus: assay and antigen not given; Example 10, epitope mapping on the 15-mer peptide.

For experiment [5], the target named is T1, Sm (sphingomyelin). The experiment can be described thus: AtheNA Multi-Lyte ANA, Ab at 50 ug/ml.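 Also: monoclonal antibodies probed against a nuclear autoantigen panel (SSA, SSB, Sm, RNP, Scl-70, Jo-1, dsDNA, CentB, histones), with anti-HIV 4E10 and palivizumab as control antibodies.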
Experiment [6] deals with systemic lupus erythematosus autoantigen SSA. Nature of the experiment: AtheNA Multi-Lyte ANA, Ab at 50 ug/ml.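 Also: monoclonal antibodies probed against a nuclear autoantigen panel (SSA, SSB, Sm, RNP, Scl-70, Jo-1, dsDNA, CentB, histones), with anti-HIV 4E10 and palivizumab as control antibodies.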
Experiment [7] deals with ribonucleoprotein (RNP). Nature of the experiment: AtheNA Multi-Lyte ANA, Ab at 50 ug/ml.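 Also: monoclonal antibodies probed against a nuclear autoantigen panel (SSA, SSB, Sm, RNP, Scl-70, Jo-1, dsDNA, CentB, histones), with anti-HIV 4E10 and palivizumab as control antibodies.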
Experiment [8] deals with T1, Sm (sphingomyelin). Nature of the experiment: AtheNA Multi-Lyte ANA, Ab at 6.25 ug/ml.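 Also: monoclonal antibodies screened for reactivity against a panel of nuclear autoantigens, with an anti-HIV and an anti-RSV monoclonal antibody serving as controls.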
The target of experiment [9] is systemic lupus erythematosus autoantigen SSA. Nature of the experiment: AtheNA Multi-Lyte ANA, Ab at 6.25 ug/ml.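 Also: monoclonal antibodies screened for reactivity against a panel of nuclear autoantigens, with an anti-HIV and an anti-RSV monoclonal antibody serving as controls.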
Experiment [10] addresses ribonucleoprotein (RNP). The experiment can be described thus: AtheNA Multi-Lyte ANA, Ab at 6.25 ug/ml.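 Also: monoclonal antibodies screened for reactivity against a panel of nuclear autoantigens, with an anti-HIV and an anti-RSV monoclonal antibody serving as controls.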
Experiment [11] deals with T3, GPPPPIDNGDITSFP(GGGK-biotin).
T3 construct: also called biotinylated 15-mer peptide; biotinylated 19-mer
T3 peptide: GPPPPIDNGDITSFPGGGK(Biotin)
The experiment can be described thus: ELISA: biotinylated peptide captured on immobilized Neutravidin, antibody at 0.5 µg/ml, anti-human IgG-HRP/ABTS, OD 405 nm. For orientation: ELISA stands for enzyme-linked immunosorbent assay.

Experiment [12] concerns the target T4, Complement Factor H (CFH) protein, full-length (human, UniProt P08603 19-1231).
T4 construct: also called full-length CFH; native CFH
The experiment can be described thus: immunoblot, SDS-PAGE under non-reducing conditions, antibody at 0.5 µg/ml, anti-human IgG-HRP, chemiluminescence; lane numbers as in Table 10. For orientation: In western blotting, separated proteins are transferred to a membrane and probed.

Experiment [13] concerns the target T1, Sm (sphingomyelin). The experiment can be described thus: AtheNA Multi-Lyte ANA, Ab at 25 ug/ml.
The target of experiment [14] is systemic lupus erythematosus autoantigen SSA. The experiment can be described thus: AtheNA Multi-Lyte ANA, Ab at 25 ug/ml.
Experiment [15] has as its target ribonucleoprotein (RNP). Nature of the experiment: AtheNA Multi-Lyte ANA, Ab at 25 ug/ml.
The target in experiment [16] is T5, reduced form of Complement Factor H (CFH), treated with TCEP (human, UniProt P08603 19-1231, disulfides reduced with 10 mM TCEP).
T5 construct: also called reduced CFH; reduced form of CFH
Nature of the experiment: immunoblot, SDS-PAGE under reducing conditions, antibody at 0.5 µg/ml, anti-human IgG-HRP, chemiluminescence; lane numbers as in Table 10.

In experiment [17] the target is T6, sclerosis autoantigen (Scl-70) (UniProt P11387 2-765, limits assumed).
T6 sequence (looked up): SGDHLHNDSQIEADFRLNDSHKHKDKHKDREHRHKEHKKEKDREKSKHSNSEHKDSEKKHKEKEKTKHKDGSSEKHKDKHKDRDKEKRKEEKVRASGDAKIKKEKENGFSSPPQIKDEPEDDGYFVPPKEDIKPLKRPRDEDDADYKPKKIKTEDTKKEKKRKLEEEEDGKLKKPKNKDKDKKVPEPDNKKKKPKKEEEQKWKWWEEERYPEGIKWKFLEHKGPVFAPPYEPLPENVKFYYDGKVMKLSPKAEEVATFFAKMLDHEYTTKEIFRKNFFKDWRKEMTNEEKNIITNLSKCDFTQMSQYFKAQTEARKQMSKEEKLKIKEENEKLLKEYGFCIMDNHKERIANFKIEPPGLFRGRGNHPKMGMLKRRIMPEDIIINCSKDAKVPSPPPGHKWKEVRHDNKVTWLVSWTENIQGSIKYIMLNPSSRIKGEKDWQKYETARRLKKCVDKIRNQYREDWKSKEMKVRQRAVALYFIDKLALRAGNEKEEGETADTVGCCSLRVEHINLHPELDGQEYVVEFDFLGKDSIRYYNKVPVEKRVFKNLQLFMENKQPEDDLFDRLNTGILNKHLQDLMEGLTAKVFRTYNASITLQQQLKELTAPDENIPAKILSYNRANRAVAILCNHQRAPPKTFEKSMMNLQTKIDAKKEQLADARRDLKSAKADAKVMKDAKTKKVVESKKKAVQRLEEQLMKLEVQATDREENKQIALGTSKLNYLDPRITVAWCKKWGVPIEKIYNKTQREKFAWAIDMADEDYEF
The experiment can be described thus: AtheNA Multi-Lyte ANA, Ab at 12.5 ug/ml.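 Also: monoclonal antibodies screened for binding to a panel of nuclear autoantigens (SSA, SSB, Sm, RNP, Scl-70, Jo-1, dsDNA, CentB, histones), with anti-HIV and anti-RSV antibodies as controls.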

Experiment [18] addresses T6, sclerosis autoantigen (Scl-70). Nature of the experiment: AtheNA Multi-Lyte ANA, Ab at 50 ug/ml.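 Also: monoclonal antibodies probed against a nuclear autoantigen panel (SSA, SSB, Sm, RNP, Scl-70, Jo-1, dsDNA, CentB, histones), with anti-HIV 4E10 and palivizumab as control antibodies.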
For experiment [19] the target is unchanged. The experiment can be described thus: AtheNA Multi-Lyte ANA, Ab at 6.25 ug/ml.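 Also: monoclonal antibodies screened for reactivity against a panel of nuclear autoantigens, with an anti-HIV and an anti-RSV monoclonal antibody serving as controls.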
For experiment [20] the target is unchanged. The experiment can be described thus: AtheNA Multi-Lyte ANA, Ab at 25 ug/ml.

Where no end group is shown, it is not given here. The star is where a group is joined. Biotin = O=C1N[C@H]2[C@H](CS[C@H]2CCCCC(=O)*)N1

The text below walks through data of patent publication US20190315842A1 (DUKE UNIVERSITY, published 2019).

T4 sequence (P08603 19-1231 limits assumed): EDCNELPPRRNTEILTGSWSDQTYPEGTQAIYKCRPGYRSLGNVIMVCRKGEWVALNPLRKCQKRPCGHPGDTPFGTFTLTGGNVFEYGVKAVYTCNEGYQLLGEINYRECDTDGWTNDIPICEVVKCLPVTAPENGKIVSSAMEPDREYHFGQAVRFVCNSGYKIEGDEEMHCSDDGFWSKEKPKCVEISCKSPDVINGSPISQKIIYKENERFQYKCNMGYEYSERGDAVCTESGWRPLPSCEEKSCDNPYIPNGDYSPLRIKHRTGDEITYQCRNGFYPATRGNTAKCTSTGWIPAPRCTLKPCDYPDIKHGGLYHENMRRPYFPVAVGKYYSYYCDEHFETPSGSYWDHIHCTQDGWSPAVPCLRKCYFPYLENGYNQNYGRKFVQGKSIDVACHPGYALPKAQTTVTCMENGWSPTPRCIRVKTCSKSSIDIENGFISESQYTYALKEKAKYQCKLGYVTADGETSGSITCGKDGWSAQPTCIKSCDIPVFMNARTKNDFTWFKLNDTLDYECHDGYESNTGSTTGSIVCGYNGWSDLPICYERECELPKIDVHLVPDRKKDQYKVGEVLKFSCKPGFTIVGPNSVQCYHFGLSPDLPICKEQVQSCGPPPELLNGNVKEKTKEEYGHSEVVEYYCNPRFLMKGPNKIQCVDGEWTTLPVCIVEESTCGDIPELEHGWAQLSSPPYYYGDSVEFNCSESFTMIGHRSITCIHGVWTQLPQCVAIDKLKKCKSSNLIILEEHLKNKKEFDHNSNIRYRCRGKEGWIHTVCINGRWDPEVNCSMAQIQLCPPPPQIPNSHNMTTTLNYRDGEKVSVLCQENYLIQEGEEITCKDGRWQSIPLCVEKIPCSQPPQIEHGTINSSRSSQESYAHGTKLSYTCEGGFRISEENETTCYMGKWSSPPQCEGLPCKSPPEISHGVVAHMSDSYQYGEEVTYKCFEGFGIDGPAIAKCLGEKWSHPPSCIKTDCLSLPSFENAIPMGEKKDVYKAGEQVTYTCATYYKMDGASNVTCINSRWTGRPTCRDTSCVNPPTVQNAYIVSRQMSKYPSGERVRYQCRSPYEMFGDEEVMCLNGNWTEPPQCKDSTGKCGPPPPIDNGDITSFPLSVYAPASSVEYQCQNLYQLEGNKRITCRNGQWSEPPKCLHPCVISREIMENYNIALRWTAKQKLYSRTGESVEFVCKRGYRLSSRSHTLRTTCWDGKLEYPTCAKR
T5 sequence (P08603 19-1231 limits assumed): as above

B1: Ab7955 (antibody, V domains shown)
VH: LVESGGGVVRPGRSLRLSCVASGFTFNAYGMHWVRQGPGKGLEWLAVISYEGKTVYYADSVKDRFTISRDNSRNTVSLHLNNLRGEDTAVYYCAKGSASAAVLQHWGQGTLVSVTS
VL: MTQSPGSLAVSLGSRATINCKSSRSLLYRSNNKNYLAWYQQKPGQSPRLLIYWASSRESGVPDRFSGGGSGTSFTLTISSLQAEDVAVYYCQQYFNPPWTFGQGTKVEIK
notes: Recombinant human antibody with IgG1 heavy chain backbone and kappa light chain constant; also called mAb 7955; clone 19
The EC50 is the concentration at which the effect is half-maximal. A lower EC50 goes with an effect from little substance. B1: the AtheNA signal with Sm (sphingomyelin) [1] was 7; in experiment [2] it was 56; in the experiment with ribonucleoprotein (RNP) [3], 8; with Sm (sphingomyelin) [5], 10; in [6] it was 92; with ribonucleoprotein (RNP) [7] it was 13. Further, the AtheNA signal with Sm (sphingomyelin) [8] was found to be 5; in [9] it was 32; with ribonucleoprotein (RNP) [10], 4. Further, in [4], the EC50 is 0.00648 µg/mL. Besides, the binding result in [11] is “binds”.

B2: 7983/6019 (antibody, V domains shown)
VH: EVQLVESGGGVVQPGRSLRLSCAASGFTFNRFGMHWVRQRQVPGKGLEWVAVISYDDNTKYYADSVKGRFTISRDNNKSTLYLQMSSLRVEDTAVYFCAKGSTAAAVLDYWGQGTLVTVSS
VL: DIVMTQSPDSLTLSLGERATINCKSSQSLFYRSNNKSYLAWYQQKPGQPPKLLIYWASVRESGVPDRFTGSGSVTDFTLTISSLRAEDVAVYYCQQYFTTPLTFGGGTKVAIK
notes: also called clone 15; H007983/K006019
For B2, in experiment [11], the binding result is recorded as “binds”.

B3: 7958/5992 (antibody, V domains shown)
VH: LVESGGGVVPPGKSLRLSCAASGFTFSLYGIHWVRQAPGKGLEWVAVISYDGNTKYYTDSVKGRFTISRDNAKNTIYLQMNSLRLDDTAVYYCAKGAANSATFDFWGRGTMVTVSS
VL: MTQSPDSLTLSLGERATINCRSSRTVLYRSNNKNYLAWYQHKPGQPPKLLMSWASTRETGVPDRFSGSGSGTHFTLTITSLQPEDVAVYYCQQYYSPPWTFGQGTKVEIR
notes: also called clone 4; H007958/K005992
For the molecule B3, in experiment [11], the binding result is recorded as “binds”.

B4: 7963/5998 (antibody, V domains shown)
VH: LVESGGGVVPPGKSLRLSCAASGFTFSLYGIHWVRQAPGKGLEWVAVISYDGNTKYYTDSVKGRFTISRDNAKNTIYLQMNSLRLDDTAVYYCAKGAANSATFDFWGRGTMVTVSS
VL: MTQSPDSLTLSLGERATINCRSSRTVLYRSNNKNYLAWYQHKPGQPPKLLMSWASTRETGVPDRFSGSGSGTHFTLTITSLQPEDVAVYYCQQYYSPPWTFGQGTKVEIR
notes: also called clone 5; H007963/K005998
With B4, the binding result in experiment [11] is reported as “binds”.

B5: 7982/6018 (antibody, V domains shown)
VH: LVESGGGVVPPGKSLRLSCAASGFTFSLYGIHWVRQAPGKGLEWVAVISYDGNTKYYTDSVKGRFTISRDNAKNTIYLQMNSLRLDDTAVYYCAKGAANSATFDFWGRGTMVTVSS
VL: MTQSPDSLTLSLGERATINCRSSRTVLYRSNNKNYLAWYQHKPGQPPKLLMSWASTRETGVPDRFSGSGSGTHFTLTITSLQPEDVAVYYCQQYYSPPWTFGQGTKVEIR
notes: also called clone 6; H007982/K006018
Take B5: the binding result in [11] was “binds”.

B6: Ab7964 (antibody, IgG1, V domains shown)
VH: LVESGGGVVQPGRSLRLSCAASGVTFSRYGMHWVRQAPGKGLEWVAVISYDEKTKYYADSVKGRFTISRDNSKNTLFLHMNRLRYEDTAVYYCAKGASSGAYFDYWGQGTLVTVSS
VL: not shown
notes: Recombinant human antibody with IgG1 heavy chain backbone and kappa light chain constant; they begin at LVESGGG and MTQSP; also called Ab7964/293i; mAb 7964
On to B6, for which the AtheNA signal in the experiment with Sm (sphingomyelin) [1] was 67; in experiment [2] it was 132; with ribonucleoprotein (RNP) [3], 51; in the experiment with Sm (sphingomyelin) [5] it was 137; in experiment [6] it was 162; with ribonucleoprotein (RNP) [7], 62. In addition, the AtheNA signal with Sm (sphingomyelin) [8] was 47; in experiment [9], 101; in the experiment with ribonucleoprotein (RNP) [10], 44; with Sm (sphingomyelin) [13] it was 96; in experiment [14], 168; with ribonucleoprotein (RNP) [15], 56. Also, the binding result in experiment [12], in experiment [16] and in experiment [11] was “binds” in each case. The molecule further gave a 50% effective concentration (EC50) in [4] of 0.0152 µg/mL.

B7: 7971/6005 (antibody, V domains shown)
VH: LVESGGGVVQPGRSLRLSCAASGFTFSRYGMHWVRQAPGKGLEWVAVMSYDGSTKYYADSVKGRFAISRDNPKNTLFLQMNSLRPDDTAVYYCAKGGAAAAVMDVWGKGTTVTVSS
VL: MTQSPDSLTVSLGERATISCKSSQRLLYSSNNKNYLAWYQQKPGQPPKLLMYWASTRESGVPDRFSGSGSGTDFSLTISSLQAEDVAVYYCQQYYNPPWTFGQGTKVEVK
notes: also called clone 14; H007971/K006005
For the molecule B7, in [11], the binding result is given as “binds”.

B8: Ab7961/293i (antibody, IgG1, V domains shown)
VH: LVESGGGVVQPGKSLRLSCVASGFTFSSYGMHWVRQAPGKGLEWVAVMSFDGKTKYYADSVKGRFTISRDNPKNTLYLQMNSLRSEDTAVYYCAKGGAAAAVFDSWGQGILLTVSS
VL: MTQSPNSLAVSLGGRATINCKTSQSILYRSNNKNYLAWYQHKSGQPPKLLIYWASTRESGVPDRFSGSGSRTDFTLTISGLQAEDVAVYYCQQYYNPPWTFGQGTKVEIK
notes: Recombinant human antibody with IgG1 heavy chain backbone and kappa light chain constant; they begin at LVESGGG and MTQSP; also called mAb 7961; clone 24
Take B8: the AtheNA signal was found to be 3 in [17]; 5 with Sm (sphingomyelin) [1]; 24 in experiment [2]; 6 in the experiment with ribonucleoprotein (RNP) [3]; 3 in [18]; 6 with Sm (sphingomyelin) [5]. Moreover, the AtheNA signal in [6] stood at 40; in the experiment with ribonucleoprotein (RNP) [7] it was 8; in [19], 2; with Sm (sphingomyelin) [8], 4; in [9], 18; with ribonucleoprotein (RNP) [10] it was 7. Also, the AtheNA signal in [20] amounted to 3; with Sm (sphingomyelin) [13] it was 5; in [14], 31; with ribonucleoprotein (RNP) [15], 8. The binding result in experiment [12], in [16] and in [11] was “binds” in each case. For the same molecule, the midpoint of the response in experiment [4], the EC50, lay at 0.0144 µg/mL.

B9: 7965/6000 (antibody, V domains shown)
VH: LVESGGGVVQPGKSLRLSCVASGFTFSSYGMHWVRQAPGKGLEWVAVMSFDGKTKYYADSVKGRFTISRDNPKNTLYLQMNSLRSEDTAVYYCAKGGAAAAVFDSWGQGILLTVSS
VL: MTQSPNSLAVSLGGRATINCKTSQSILYRSNNKNYLAWYQHKSGQPPKLLIYWASTRESGVPDRFSGSGSRTDFTLTISGLQAEDVAVYYCQQYYNPPWTFGQGTKVEIK
notes: also called clone 12; H007965/K006000
For the molecule B9, in [11], the binding result was “binds”.

B10: 7967/6002 (antibody, V domains shown)
VH: LVESGGGVVQPGKSLRLSCVASGFSFSTYGMHWVRQAPGKGLEWVAVMSFDGKTKYYADSVKGRFTISRDNPKNTLYLQMNSLRSEDTAVYYCAKGGAAAAVFDSWGPGILLTVSS
VL: MTQSPNSLAVSLGGRATINCKASQSILYRSNNKNYLAWYQHKAGQPPKLLIYWASTRESGVPERFSGSGSRTDFTLTINGLQAEDVAVYYCQQYYNPPWTFGQGTKVEIK
notes: also called clone 8; H007967/K006002
For B10, in [11], the binding result is given as “binds”.
